Data as given in article doi:10.1101/852715.

Biological target: NSTTR, artificially mutated variant of TTR carrying the double mutation N99R/S100R
Assay: SEC-MALS

stoichiometry N: 4
Substance: NSTTR, artificially mutated variant of TTR carrying the double mutation N99R/S100R (natural protein)
